The labels stand for the following.
B1: TBC1 domain family member 7 (Homo sapiens), Q9P0N9 (parent)
chain: MTEDSQRNFRSVYYEKVGFRGVEEKKSLEILLKDDRLDTEKLCTFSQRFPLPSMYRALVWKVLLGILPPHHESHAKVMMYRKEQYLDVLHALKVVRFVSDATPQAEVYLRMYQLESGKLPRSPSFPLEPDDEVFLAIAKAMEEMVEDSVDCYWITRRFVNQLNTKYRDSLPQLPKAFEQYLNLEDGRLLTHLRMCSAAPKLPYDLWFKRCFAGCLPESSLQRVWDKVVSGSCKILVFVAVEILLTFKIKVMALNSAEKITKFLENIPQDSSDAIVSKAIDLWHKHCGTPVHSS
B2: Notch homolog 2 N-terminal-like protein A (Homo sapiens), Q7Z3S9 (parent)
chain: MCVTYHNGTGYCKCPEGFLGEYCQHRDPCEKNRCQNGGTCVAQAMLGKATCRCASGFTGEDCQYSTSHPCFVSRPCLNGGTCHMLSRDTYECTCQVGFTGKECQWTDACLSHPCANGSTCTTVANQFSCKCLTGFTGQKCETDVNECDIPGHCQHGGTCLNLPGSYQCQCLQGFTGQYCDSLYVPCAPSPCVNGGTCRQTGDFTFECNCLPETVRRGTELWERDREVWNGKEHDEN
partner: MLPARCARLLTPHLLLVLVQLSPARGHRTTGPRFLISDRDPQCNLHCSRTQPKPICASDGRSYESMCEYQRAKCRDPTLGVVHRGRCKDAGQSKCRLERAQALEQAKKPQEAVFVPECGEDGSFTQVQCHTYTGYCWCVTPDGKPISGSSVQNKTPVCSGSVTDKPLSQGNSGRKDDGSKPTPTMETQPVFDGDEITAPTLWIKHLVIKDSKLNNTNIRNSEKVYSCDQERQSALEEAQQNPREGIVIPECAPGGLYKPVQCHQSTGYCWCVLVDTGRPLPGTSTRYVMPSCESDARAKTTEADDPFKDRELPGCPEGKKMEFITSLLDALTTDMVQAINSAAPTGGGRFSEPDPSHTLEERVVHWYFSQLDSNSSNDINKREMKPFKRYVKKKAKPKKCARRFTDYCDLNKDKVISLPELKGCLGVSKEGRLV
B3: Maspardin (Homo sapiens), Q9NZD8 (parent)
chain: MGEIKVSPDYNWFRGTVPLKKIIVDDDDSKIWSLYDAGPRSIRCPLIFLPPVSGTADVFFRQILALTGWGYRVIALQYPVYWDHLEFCDGFRKLLDHLQLDKVHLFGASLGGFLAQKFAEYTHKSPRVHSLILCNSFSDTSIFNQTWTANSFWLMPAFMLKKIVLGNFSSGPVDPMMADAIDFMVDRLESLGQSELASRLTLNCQNSYVEPHKIRDIPVTIMDVFDQSALSTEAKEEMYKLYPNARRAHLKTGGNFPYLCRSAEVNLYVQIHLLQFHGTKYAAIDPSMVSAEELEVQKGSLGISQEEQ
B4: Peroxisomal bifunctional enzyme (Homo sapiens), Q08426 (parent)
chain: MAEYTRLHNALALIRLRNPPVNAISTTLLRDIKEGLQKAVIDHTIKAIVICGAEGKFSAGADIRGFSAPRTFGLTLGHVVDEIQRNEKPVVAAIQGMAFGGGLELALGCHYRIAHAEAQVGLPEVTLGLLPGARGTQLLPRLTGVPAALDLITSGRRILADEALKLGILDKVVNSDPVEEAIRFAQRVSDQPLESRRLCNKPIQSLPNMDSIFSEALLKMRRQHPGCLAQEACVRAVQAAVQYPYEVGIKKEEELFLYLLQSGQARALQYAFFAERKANKWSTPSGASWKTASARPVSSVGVVGLGTMGRGIVISFARARIPVIAVDSDKNQLATANKMITSVLEKEASKMQQSGHPWSGPKPRLTSSVKELGGVDLVIEAVFEEMSLKKQVFAELSAVCKPEAFLCTNTSALDVDEIASSTDRPHLVIGTHFFSPAHVMKLLEVIPSQYSSPTTIATVMNLSKKIKKIGVVVGNCFGFVGNRMLNPYYNQAYFLLEEGSKPEEVDQVLEEFGFKMGPFRVSDLAGLDVGWKSRKGQGLTGPTLLPGTPARKRGNRRYCPIPDVLCELGRFGQKTGKGWYQYDKPLGRIHKPDPWLSKFLSRYRKTHHIEPRTISQDEILERCLYSLINEAFRILGEGIAASPEHIDVVYLHGYGWPRHKGGPMFYASTVGLPTVLEKLQKYYRQNPDIPQLEPSDYLKKLASQGNPPLKEWQSLAGSPSSKL

Variants of B1 are the subject of one experiment. Conditions: with hook1_human HOOK1, Q9UJC3.
hook1_human HOOK1, Q9UJC3, sequence (Q9UJC3 whole entry): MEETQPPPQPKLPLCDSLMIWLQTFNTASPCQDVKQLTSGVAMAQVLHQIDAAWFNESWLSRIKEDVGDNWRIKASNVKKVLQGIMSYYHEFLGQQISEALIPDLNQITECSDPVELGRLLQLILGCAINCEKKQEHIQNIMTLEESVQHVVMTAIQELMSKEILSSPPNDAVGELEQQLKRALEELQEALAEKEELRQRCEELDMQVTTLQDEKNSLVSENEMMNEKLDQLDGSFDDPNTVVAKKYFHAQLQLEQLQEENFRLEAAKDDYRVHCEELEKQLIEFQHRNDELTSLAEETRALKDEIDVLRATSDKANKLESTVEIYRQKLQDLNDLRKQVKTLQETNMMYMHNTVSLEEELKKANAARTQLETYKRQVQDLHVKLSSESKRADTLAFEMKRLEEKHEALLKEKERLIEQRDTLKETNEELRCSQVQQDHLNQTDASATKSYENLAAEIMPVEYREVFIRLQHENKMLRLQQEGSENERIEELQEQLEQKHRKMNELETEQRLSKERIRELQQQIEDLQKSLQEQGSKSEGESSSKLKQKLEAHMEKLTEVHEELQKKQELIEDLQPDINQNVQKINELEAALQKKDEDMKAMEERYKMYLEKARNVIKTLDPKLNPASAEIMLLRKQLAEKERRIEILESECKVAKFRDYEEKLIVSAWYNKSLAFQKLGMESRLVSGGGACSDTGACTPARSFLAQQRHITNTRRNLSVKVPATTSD
Take L67W: the “effect of a mutation on the interaction” value is “disrupting interaction strength”.

Variants of B1 are the subject of the next experiment. As to conditions: with KRT19, P08727.
KRT19, P08727, sequence (P08727 whole entry): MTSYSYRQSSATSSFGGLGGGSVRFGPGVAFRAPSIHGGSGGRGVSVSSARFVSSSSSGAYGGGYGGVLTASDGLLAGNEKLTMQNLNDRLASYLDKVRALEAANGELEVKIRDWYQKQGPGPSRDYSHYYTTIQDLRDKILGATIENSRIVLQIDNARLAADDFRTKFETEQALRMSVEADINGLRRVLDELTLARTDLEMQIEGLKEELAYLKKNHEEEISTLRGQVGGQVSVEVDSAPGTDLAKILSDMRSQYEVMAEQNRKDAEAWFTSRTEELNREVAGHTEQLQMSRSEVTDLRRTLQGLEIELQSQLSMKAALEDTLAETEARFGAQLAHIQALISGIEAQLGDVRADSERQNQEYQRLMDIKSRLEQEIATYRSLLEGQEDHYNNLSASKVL
With L67W, the “effect of a mutation on the interaction” value is reported as “disrupting interaction strength”.

In another experiment the parent is B2. As to conditions: with smoc1_human SMOC1, Q9H4F8.
Take A115T: the “effect of a mutation on the interaction” value is on record as “with no effect”.

In the case of R74Q, the “effect of a mutation on the interaction” value was “with no effect”.

Variants of B3 are the subject of another experiment. As to conditions: with cryaa_human CRYAA.
For the variant H272D, the “effect of a mutation on the interaction” value is “disrupting interaction strength”.

As for A180T, the “effect of a mutation on the interaction” value is recorded as “disrupting interaction strength”.

Variants of B3 are the subject of the next experiment. Conditions: with traf2_human TRAF2, Q12933.
traf2_human TRAF2, Q12933, sequence (Q12933 whole entry): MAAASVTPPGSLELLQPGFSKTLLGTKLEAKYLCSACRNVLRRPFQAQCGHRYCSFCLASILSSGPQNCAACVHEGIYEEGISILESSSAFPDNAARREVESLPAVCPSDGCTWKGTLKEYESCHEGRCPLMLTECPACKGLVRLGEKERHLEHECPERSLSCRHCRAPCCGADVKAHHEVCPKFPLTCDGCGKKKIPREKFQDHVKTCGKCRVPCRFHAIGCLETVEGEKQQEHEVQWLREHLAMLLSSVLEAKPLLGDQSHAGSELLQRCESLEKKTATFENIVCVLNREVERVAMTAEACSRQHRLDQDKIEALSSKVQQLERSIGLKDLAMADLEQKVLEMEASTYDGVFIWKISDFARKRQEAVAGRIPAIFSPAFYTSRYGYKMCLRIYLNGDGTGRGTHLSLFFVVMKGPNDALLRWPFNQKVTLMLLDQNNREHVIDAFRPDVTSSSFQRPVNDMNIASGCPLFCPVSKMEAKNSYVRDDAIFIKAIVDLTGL
In the case of H272D, the “effect of a mutation on the interaction” value is “disrupting interaction strength”.

As for A180T, the “effect of a mutation on the interaction” value was “with no effect”.

The next experiment covers variants of B3. As to conditions: with htf4_human TCF12, Q99081.
htf4_human TCF12, Q99081, sequence (Q99081 whole entry): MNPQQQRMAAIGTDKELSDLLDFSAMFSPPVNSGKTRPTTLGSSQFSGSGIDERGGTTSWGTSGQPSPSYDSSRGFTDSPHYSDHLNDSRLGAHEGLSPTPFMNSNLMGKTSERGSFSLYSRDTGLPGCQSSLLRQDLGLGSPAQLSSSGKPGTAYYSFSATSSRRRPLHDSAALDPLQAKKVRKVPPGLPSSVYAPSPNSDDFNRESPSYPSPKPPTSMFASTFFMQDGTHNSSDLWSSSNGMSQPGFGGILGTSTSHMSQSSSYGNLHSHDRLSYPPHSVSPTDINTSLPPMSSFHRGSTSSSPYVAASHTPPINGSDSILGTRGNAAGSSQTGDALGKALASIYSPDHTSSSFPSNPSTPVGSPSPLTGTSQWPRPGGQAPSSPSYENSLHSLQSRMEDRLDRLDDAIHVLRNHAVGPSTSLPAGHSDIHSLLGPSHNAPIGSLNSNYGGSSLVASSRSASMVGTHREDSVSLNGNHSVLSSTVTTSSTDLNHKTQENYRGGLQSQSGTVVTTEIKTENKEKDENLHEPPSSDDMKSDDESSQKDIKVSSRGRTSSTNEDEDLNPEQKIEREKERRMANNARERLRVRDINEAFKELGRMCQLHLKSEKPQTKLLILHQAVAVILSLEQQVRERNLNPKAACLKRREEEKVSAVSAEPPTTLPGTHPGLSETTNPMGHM
Consider H272D, for which the “effect of a mutation on the interaction” value was “disrupting interaction strength”.

For A180T, the “effect of a mutation on the interaction” value is listed as “with no effect”.

The variants in another experiment derive from B3. As to conditions: with rtn4_human RTN4, Q9NQC3.
rtn4_human RTN4, Q9NQC3, sequence (Q9NQC3 whole entry): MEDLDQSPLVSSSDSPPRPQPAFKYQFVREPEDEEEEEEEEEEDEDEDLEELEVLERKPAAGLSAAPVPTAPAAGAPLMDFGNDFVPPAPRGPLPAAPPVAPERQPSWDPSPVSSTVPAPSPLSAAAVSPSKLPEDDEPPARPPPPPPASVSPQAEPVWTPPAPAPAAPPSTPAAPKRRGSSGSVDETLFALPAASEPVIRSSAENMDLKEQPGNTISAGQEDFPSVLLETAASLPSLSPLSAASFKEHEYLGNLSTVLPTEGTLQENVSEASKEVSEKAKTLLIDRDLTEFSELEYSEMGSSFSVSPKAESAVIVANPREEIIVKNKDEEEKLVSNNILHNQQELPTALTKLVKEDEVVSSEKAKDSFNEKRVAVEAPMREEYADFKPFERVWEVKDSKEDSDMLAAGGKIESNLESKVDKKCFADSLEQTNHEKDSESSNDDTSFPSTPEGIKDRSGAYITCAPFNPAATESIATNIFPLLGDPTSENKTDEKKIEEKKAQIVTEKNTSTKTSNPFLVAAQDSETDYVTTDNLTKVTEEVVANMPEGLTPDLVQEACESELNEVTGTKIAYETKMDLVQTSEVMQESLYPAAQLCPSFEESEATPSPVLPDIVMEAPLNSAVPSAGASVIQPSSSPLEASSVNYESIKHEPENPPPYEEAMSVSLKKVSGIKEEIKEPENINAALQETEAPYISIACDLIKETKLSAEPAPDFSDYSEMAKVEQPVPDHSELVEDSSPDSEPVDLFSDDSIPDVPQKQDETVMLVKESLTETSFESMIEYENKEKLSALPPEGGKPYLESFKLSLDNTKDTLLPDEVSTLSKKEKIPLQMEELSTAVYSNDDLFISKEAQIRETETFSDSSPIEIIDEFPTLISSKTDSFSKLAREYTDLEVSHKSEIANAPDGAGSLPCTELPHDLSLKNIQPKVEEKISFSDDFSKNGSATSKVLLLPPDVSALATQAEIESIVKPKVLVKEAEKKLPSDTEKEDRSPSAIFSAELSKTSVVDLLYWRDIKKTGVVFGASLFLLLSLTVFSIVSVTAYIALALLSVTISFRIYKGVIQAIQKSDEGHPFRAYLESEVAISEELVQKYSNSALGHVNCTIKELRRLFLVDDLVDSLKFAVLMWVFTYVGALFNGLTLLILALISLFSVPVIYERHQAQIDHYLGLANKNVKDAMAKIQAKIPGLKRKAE
Consider A180T, for which the “effect of a mutation on the interaction” value is “with no effect”.

Variants of B3 are the subject of a further experiment. Conditions: with reep6_human REEP6, Q96HR9.
reep6_human REEP6, Q96HR9, sequence (Q96HR9 whole entry): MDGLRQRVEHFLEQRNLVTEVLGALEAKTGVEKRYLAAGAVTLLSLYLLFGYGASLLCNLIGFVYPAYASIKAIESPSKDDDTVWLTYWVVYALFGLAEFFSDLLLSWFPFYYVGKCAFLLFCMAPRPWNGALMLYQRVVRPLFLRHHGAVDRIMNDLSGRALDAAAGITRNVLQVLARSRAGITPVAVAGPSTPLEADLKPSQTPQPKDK
With A180T, the “effect of a mutation on the interaction” value is reported as “with no effect”.

The next experiment covers variants of B3. As to conditions: with spre2_human SPRED2, Q7Z698.
spre2_human SPRED2, Q7Z698, sequence (Q7Z698 whole entry): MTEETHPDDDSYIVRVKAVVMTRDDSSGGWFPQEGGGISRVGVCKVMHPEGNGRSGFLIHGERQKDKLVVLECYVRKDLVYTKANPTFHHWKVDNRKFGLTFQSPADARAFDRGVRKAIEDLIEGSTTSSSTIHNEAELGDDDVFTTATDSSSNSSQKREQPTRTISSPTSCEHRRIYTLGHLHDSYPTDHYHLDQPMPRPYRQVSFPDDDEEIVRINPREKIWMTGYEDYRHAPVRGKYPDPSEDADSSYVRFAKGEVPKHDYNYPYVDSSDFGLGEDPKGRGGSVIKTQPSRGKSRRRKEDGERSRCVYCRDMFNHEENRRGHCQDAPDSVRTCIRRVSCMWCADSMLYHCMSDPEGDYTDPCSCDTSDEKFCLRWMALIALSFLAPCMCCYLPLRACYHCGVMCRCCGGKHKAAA
For the variant A180T, the “effect of a mutation on the interaction” value is on record as “with no effect”.

In the next experiment the parent is B3. Conditions: with atrap_human AGTRAP.
On to A180T, for which the “effect of a mutation on the interaction” value is recorded as “with no effect”.

In a further experiment the parent is B3. Conditions: with akir2_human AKIRIN2, Q53H80.
akir2_human AKIRIN2, Q53H80, sequence (Q53H80 whole entry): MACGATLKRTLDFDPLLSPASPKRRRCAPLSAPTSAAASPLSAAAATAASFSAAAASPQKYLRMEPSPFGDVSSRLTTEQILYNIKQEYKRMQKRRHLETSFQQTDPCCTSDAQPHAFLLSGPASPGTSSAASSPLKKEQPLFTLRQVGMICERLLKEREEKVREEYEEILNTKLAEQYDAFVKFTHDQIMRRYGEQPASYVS
Take A180T: the “effect of a mutation on the interaction” value was “with no effect”.

The variants in a further experiment derive from B4. Conditions: with tpp2_human TPP2, P29144.
Regarding L715S, the “effect of a mutation on the interaction” value was “with no effect”.

For I646T, the “effect of a mutation on the interaction” value was “disrupting interaction strength”.

R483Q: the “effect of a mutation on the interaction” value is “disrupting interaction strength”.

A further experiment covers variants of B4. As to conditions: with actb_human ACTB.
L715S: the “effect of a mutation on the interaction” value is reported as “with no effect”.

Consider I646T, for which the “effect of a mutation on the interaction” value was “disrupting interaction strength”.

For the variant R483Q, the “effect of a mutation on the interaction” value is given as “disrupting interaction strength”.

Variants of B4 are the subject of the next experiment. Conditions: with actg_human ACTG1, P63261.
On to L715S, for which the “effect of a mutation on the interaction” value is “with no effect”.

As to I646T, the “effect of a mutation on the interaction” value is on record as “disrupting interaction strength”.

As for R483Q, the “effect of a mutation on the interaction” value was “disrupting interaction strength”.

Variants of B4 are the subject of another experiment. As to conditions: with tnip1_human TNIP1, Q15025.
tnip1_human TNIP1, Q15025, sequence (Q15025 whole entry): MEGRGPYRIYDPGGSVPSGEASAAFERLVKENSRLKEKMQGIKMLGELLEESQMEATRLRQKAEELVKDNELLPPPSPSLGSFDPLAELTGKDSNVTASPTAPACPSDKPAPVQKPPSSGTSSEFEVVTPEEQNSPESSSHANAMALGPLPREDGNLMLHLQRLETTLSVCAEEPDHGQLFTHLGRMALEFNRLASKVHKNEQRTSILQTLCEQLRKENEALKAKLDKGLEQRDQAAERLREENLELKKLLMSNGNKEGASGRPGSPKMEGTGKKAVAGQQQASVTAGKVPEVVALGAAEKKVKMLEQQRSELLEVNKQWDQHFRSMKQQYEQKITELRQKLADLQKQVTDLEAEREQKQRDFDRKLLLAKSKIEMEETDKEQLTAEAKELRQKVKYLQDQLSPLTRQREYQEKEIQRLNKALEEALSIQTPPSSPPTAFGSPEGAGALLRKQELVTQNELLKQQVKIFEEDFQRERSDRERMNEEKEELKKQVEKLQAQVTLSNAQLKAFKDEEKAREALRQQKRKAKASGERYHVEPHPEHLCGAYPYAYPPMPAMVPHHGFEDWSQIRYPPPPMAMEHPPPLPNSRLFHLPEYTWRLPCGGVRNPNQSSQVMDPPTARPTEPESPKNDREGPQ
Turning to L715S, the “effect of a mutation on the interaction” value is given as “with no effect”.

In the case of I646T, the “effect of a mutation on the interaction” value is given as “disrupting interaction strength”.

Consider R483Q, for which the “effect of a mutation on the interaction” value is recorded as “with no effect”.

These data come from IntAct's records for PubMed 31515488.
